Data set [1] addresses conjoined PfA (cPfA): N-PfA and C-PfA halves of P. furiosus L-asparaginase without the 19-residue linker (Pyrococcus furiosus) (UniProt Q8TZE8). Briefly: SAXS; protein at 6 mg/mL in a thermostated quartz capillary, 60 °C; association state from I0 of the Guinier analysis against lysozyme.
For data set [2] the target is unchanged. Briefly: SAXS; protein at 6 mg/mL in a thermostated quartz capillary, 25 °C; association state from I0 of the Guinier analysis against lysozyme.
Data set [3] shares this target. Briefly: SAXS; protein at 6 mg/mL in a thermostated quartz capillary, 70 °C; association state from I0 of the Guinier analysis against lysozyme.
For data set [4] the target is unchanged. Briefly: SAXS; protein at 6 mg/mL in a thermostated quartz capillary, 80 °C; association state from I0 of the Guinier analysis against lysozyme.
Data set [5] has the same target. Briefly: SAXS; protein at 6 mg/mL in a thermostated quartz capillary, 50 °C; association state from I0 of the Guinier analysis against lysozyme.
For data set [6] the target is unchanged. Briefly: SAXS; protein at 6 mg/mL in a thermostated quartz capillary, 30 °C; association state from I0 of the Guinier analysis against lysozyme.
For data set [7] the target is unchanged. Briefly: SAXS; protein at 6 mg/mL in a thermostated quartz capillary, 40 °C; association state from I0 of the Guinier analysis against lysozyme.
Data set [8] has as its target defunct cPfA (dcPfA): cPfA truncated beyond D178 of the N-terminal domain (Pyrococcus furiosus) (UniProt Q8TZE8).
Data set [9] deals with the molecule itself. The data set can be described thus: SAXS; protein at 6 mg/mL in a thermostated quartz capillary, 50 °C; association state from I0 of the Guinier analysis against lysozyme.
Data set [10] concerns the molecule itself. The data set can be described thus: SAXS; protein at 6 mg/mL in a thermostated quartz capillary, 30 °C; association state from I0 of the Guinier analysis against lysozyme.
Data set [11] concerns the molecule itself. The data set can be described thus: SAXS; protein at 6 mg/mL in a thermostated quartz capillary, 40 °C; association state from I0 of the Guinier analysis against lysozyme.
Data set [12] concerns the molecule itself. The data set can be described thus: SAXS; protein at 6 mg/mL in a thermostated quartz capillary, 25 °C; association state from I0 of the Guinier analysis against lysozyme.
Data set [13] concerns the molecule itself. The data set can be described thus: SAXS; protein at 6 mg/mL in a thermostated quartz capillary, 80 °C; association state from I0 of the Guinier analysis against lysozyme.
Data set [14] deals with the molecule itself. The data set can be described thus: crystal structure; cPfA crystallised at 37 °C, 2.36 Å, PDB 5CBP; contacts between symmetry mates.

The values that follow come from paper PMC7728782, “Heat induces end to end repetitive association in P. furiosusL-asparaginase which enables its thermophilic property” (Scientific Reports, 2020).

As usually defined, the stoichiometry N is a count of units in the complex or per binding partner. With “conjoined PfA (cPfA): N-PfA and C-PfA halves of P. furiosus L-asparaginase without the 19-residue linker (from UniProt Q8TZE8 1-182; Q8TZE8 1-182) (complex)”, the stoichiometry N in data set [1] came out at 4; in data set [2], 2; in data set [3] it was 8; in data set [4], 12; in [5], 2; in [6], 2. In [7], the stoichiometry N is 2.

As to “defunct cPfA (dcPfA): cPfA truncated beyond D178 of the N-terminal domain (from UniProt Q8TZE8 1-178; Q8TZE8 1-178) (complex)”, in data set [8], the loss in specific activity of dcPfA relative to cPfA, 45 °C amounted to 38%; the loss in specific activity of dcPfA relative to cPfA, 60 °C stood at 60%; the loss in specific activity of dcPfA relative to cPfA, 70 °C was 80%; the loss in specific activity of dcPfA relative to cPfA, 80 °C was 90%.

LVVN [L-V-V-N peptide (terminal short beta-strand of the N-terminal domain of PfA, Leu179-Asn182)]: in data set [8], the specific activity of dcPfA pre-incubated with LVVN peptide (different molar ratios, highest effective 500 µM) against dcPfA alone, 37 °C stood at 1.66 fold; the specific activity of dcPfA pre-incubated with LVVN peptide (different molar ratios, highest effective 500 µM) against dcPfA alone, 45 °C is 1.85 fold; the specific activity of dcPfA pre-incubated with LVVN peptide (different molar ratios, highest effective 500 µM) against dcPfA alone, 60 °C is 2.36 fold.

B1: L-asparaginase from Pyrococcus furiosus, full-length wild type (PfA) (enzyme, UniProt Q8TZE8 1-326, looked up)
chain: MKILLIGMGGTIASVKGENGYEASLSVKEVLDIAGIKDCEDCDFLDLKNVDSTLIQPEDWVDLAETLYKNVKKYDGIIVTHGTDTLAYTSSMISFMLRNPPIPIVFTGSMIPATEENSDAPLNLQTAIKFATSGIRGVYVAFNGKVMLGVRTSKVRTMSRDAFESINYPIIAELRGEDLVVNFIPKFNNGEVTLDLRHDPKVLVIKLIPGLSGDIFRAAVELGYRGIVIEGYGAGGIPYRGSDLLQTIEELSKEIPIVMTTQAMYDGVDLTRYKVGRLALRAGVIPAGDMTKEATVTKLMWILGHTNNVEEIKVLMRKNLVGELRD
notes: L-asparaginase of Pyrococcus furiosus, full length, with N-terminal domain, 19-residue linker and C-terminal domain; One protomer; the SAXS rows give the size of the oligomer it forms
On to B1, for which the “stoichiometry N” value in [9] is 2; in [10] it was 2; in data set [11] it was 2; in data set [12], 2; in data set [13] it was 4.

B2: N-PfA, N-terminal domain chain of conjoined PfA (domain or fragment, Pyrococcus furiosus, UniProt Q8TZE8 1-182, looked up)
chain: MKILLIGMGGTIASVKGENGYEASLSVKEVLDIAGIKDCEDCDFLDLKNVDSTLIQPEDWVDLAETLYKNVKKYDGIIVTHGTDTLAYTSSMISFMLRNPPIPIVFTGSMIPATEENSDAPLNLQTAIKFATSGIRGVYVAFNGKVMLGVRTSKVRTMSRDAFESINYPIIAELRGEDLVVN
notes: N-PfA, the N-terminal half of P. furiosus L-asparaginase; ends at residue 182
For the molecule B2, the binding result in [14] was “binds”.
